The source of these data is PMC7144919.

In data set [1] the target is T1, Hfq Core (Escherichia coli, UniProt P0A6X3 2-69). Nature of the data set: fluorescence polarization. (In general: Polarisation of emitted light reports the rotation of a fluorescent probe.)
In data set [2] the target is T2, Hfq WT (Table 3) (Escherichia coli, UniProt P0A6X3 2-69). Nature of the data set: fluorescence polarization.
Data set [3] concerns the target T3, Hfq F42W (Escherichia coli, UniProt P0A6X3 2-69, F42W). Nature of the data set: tryptophan fluorescence quenching.
For data set [4], the target named is T2, Hfq WT (Table 3). The data set can be described thus: fluorescence polarization. This is another data set of the same source.
Data set [5] addresses T3, Hfq F42W. Nature of the data set: tryptophan fluorescence quenching. The source holds these as a separate data set.
Data set [6] deals with T1, Hfq Core. The data set can be described thus: fluorescence polarization. This is another data set of the same source.
The next data set concerns the target Hfq full length WT (Escherichia coli, UniProt P0A6X3 2-102). Nature of the data set: fluorescence polarization.
The next data set concerns the target Hfq(2-69:R16A/R17A) (Escherichia coli, UniProt P0A6X3 2-69, R16A;R17A). The data set can be described thus: fluorescence polarization.
Another data set has as its target Hfq(2-69:N13A) (Escherichia coli, UniProt P0A6X3 2-69, N13A). Nature of the data set: fluorescence polarization.
For a further data set, the target named is Hfq(2-69:Q41E) (Escherichia coli, UniProt P0A6X3 2-69, Q41E). The data set can be described thus: fluorescence polarization.
In a further data set the target is Hfq(2-69:R16A) (Escherichia coli, UniProt P0A6X3 2-69, R16A). Nature of the data set: fluorescence polarization.
The next data set deals with Hfq(2-69:Q41A) (Escherichia coli, UniProt P0A6X3 2-69, Q41A). Nature of the data set: fluorescence polarization.
The next data set has as its target Sa Hfq (Staphylococcus aureus, UniProt A0A0H3JV59 1-77). Nature of the data set: fluorescence polarization.

Read-outs that look alike come from different tables or passages of the source.

B1: 3-base A-tract DNA (dsDNA)
DNA 1: CGGCAAACGAAACGGCAAACGAAACGGCAAACGAAA
DNA 2: TTTCGTTTGCCGTTTCGTTTGCCGTTTCGTTTGCCG
In the case of B1, the affinity in the data set with Hfq Core [1], expressed as Kd, was 19.4 ± 6 nM.

B2: site A (structured_RNA)
RNA: AUUUUUUCGAAUCGAAAGGUUCA
The molecule B2 showed an equilibrium dissociation constant (Kd) in the data set with Hfq WT (Table 3) [2] of 22.7 ± 1.5 nM. In the data set with Hfq F42W [3], the binding result is on record as “binds”.

B3: A27 (ssRNA)
RNA: AAAAAAAAAAAAAAAAAAAAAAAAAAA
For the molecule B3, in the data set with Hfq WT (Table 3) [4], the binding result is given as “binds”.

B4: Hairpin 2 (structured_RNA)
RNA: CAUGAUUCUUAUACGUACGACGGAAGAUGAGAAUUAUGGU
B4 displayed a Kd with Hfq WT (Table 3) [2] of 61.5 ± 18.3 nM. The binding result in the data set with Hfq F42W [5] is “binds”.

B5: xtal DNA, 30 bp with three 6-bp A-tracts (dsDNA)
DNA 1: CGGCAAAAAACGGCAAAAAACGGCAAAAAA
DNA 2: TTTTTTGCCGTTTTTTGCCGTTTTTTGCCG
As to B5, the dissociation constant (Kd) stood at 94 ± 8 nM with Hfq Core [6]; 175 ± 4.5 nM with Hfq full length WT; 4.9 ± 2.4 nM with Hfq Core [1]; 66.8 ± 10.6 nM in the data set with Hfq(2-69:R16A/R17A); 6 ± 2.3 nM with Hfq(2-69:N13A); 47.1 ± 4.7 nM with Hfq(2-69:Q41E). The figures for the equilibrium dissociation constant (Kd) in the data set with Hfq(2-69:R16A), in the data set with Hfq(2-69:Q41A) and with Sa Hfq were 34.1 ± 7 nM, 300 ± 33.6 nM and 6400 nM, respectively. Further, in the data set with Hfq F42W [5], the binding result is given as “binds”.

B6: RacA DNA 14 bp (dsDNA)
DNA 1: TGACGCCGGCGTCA
DNA 2: TGACGCCGGCGTCA
The molecule B6 displayed a Kd with Hfq Core [1] of 16.2 ± 3.7 nM.

As usually defined, the Kd is the concentration at which binding is half-saturated.
